Substitutions are numbered along the chain they refer to. Names and notes keep the numbering of the source.
B1: DDR1 residue 415 to cysteine (in the C287S background) (receptor, human, UniProt Q08345 19-913, looked up)
chain: DADMKGHFDPAKCRYALGMQDRTIPDSDISASSSWSDSTAARHSRLESSDGDGAWCPAGSVFPKEEEYLQVDLQRLHLVALVGTQGRHAGGLGKEFSRSYRLRYSRDGRRWMGWKDRWGQEVISGNEDPEGVVLKDLGPPMVARLVRFYPRADRVMSVCLRVELYGCLWRDGLLSYTAPVGQTMYLSEAVYLNDSTYDGHTVGGLQYGGLGQLADGVVGLDDFRKSQELRVWPGYDYVGWSNHSFSSGYVEMEFEFDRLRAFQAMQVHSNNMHTLGARLPGGVECRFRRGPAMAWEGEPMRHNLGGNLGDPRARAVSVPLGGRVARFLQCRFLFAGPWLLFSEISFISDVVNNSSPALGGTFPPAPWWPPGPPPTNFSSLELEPRGQQPVAKAEGSCTAILIGCLVAIILLLLLIIALMLWRLHWRRLLSKAERRVLEEELTVHLSVPGDTILINNRPGPREPPPYQEPRPRGNPPHSAPCVPNGSALLLSNPAYRLLLATYARPPRGPGPPTPAWAKPTNTQAYSGDYMEPEKPGAPLLPPPPQNSVPHYAEADIVTLQGVTGGNTYAVPALPPGAVGDGPPRVDFPRSRLRFKEKLGEGQFGEVHLCEVDSPQDLVSLDFPLNVRKGHPLLVAVKILRPDATKNARNDFLKEVKIMSRLKDPNIIRLLGVCVQDDPLCMITDYMENGDLNQFLSAHQLEDKAAEGAPGDGQAAQGPTISYPMLLHVAAQIASGMRYLATLNFVHRDLATRNCLVGENFTIKIADFGMSRNLYAGDYYRVQGRAVLPIRWMAWECILMGKFTTASDVWAFGVTLWEVLMLCRAQPFGQLTDEQVIENAGEFFRDQGRQVYLSRPPACPQGLYELMLRCWSRESEQRPPFSQLHRFLAEDALNTV
notes: discoidin domain receptor 1, isoform DDR1b, human; full-length cDNA in pRK5; The text gives only the range V408C to A417C (10 single mutants); also called one of the 10 mutants V408C to A417C; source: HEK293, transiently transfected, in lysate
B2: DDR1 residue 414 to cysteine (in the C287S background) (receptor, human, UniProt Q08345 19-913, looked up)
chain: B1 chain with S396C, C397P
notes: as for B1
B3: DDR1 residue 418 to cysteine (in the C287S background) (receptor, human, UniProt Q08345 19-913, looked up)
chain: B1 chain with C397P, I400C
notes: discoidin domain receptor 1, isoform DDR1b, human; full-length cDNA in pRK5; source: HEK293, transiently transfected, in lysate
B4: DDR1 E412C (in the C287S background) (receptor, human, UniProt Q08345 19-913, looked up)
chain: B1 chain with E394C, C397P
notes: as for B3
B5: DDR1 residue 410 to cysteine (in the C287S background) (receptor, human, UniProt Q08345 19-913, looked up)
chain: B1 chain with K392C, C397P
notes: as for B1
B6: DDR1 A417C (in the C287S background) (receptor, human, UniProt Q08345 19-913, looked up)
chain: B1 chain with C397P, A399C
notes: as for B3
B7: DDR1 V408C (in the C287S background) (receptor, human, UniProt Q08345 19-913, looked up)
chain: B1 chain with V390C, C397P
notes: as for B3
B8: DDR1 residue 419 to cysteine (in the C287S background) (receptor, human, UniProt Q08345 19-913, looked up)
chain: B1 chain with C397P, L401C
notes: discoidin domain receptor 1, isoform DDR1b, human; full-length cDNA in pRK5; also called TM cysteine mutant, residue 419; source: HEK293, transiently transfected, in lysate
B9: DDR1 residue 411 to cysteine (in the C287S background) (receptor, human, UniProt Q08345 19-913, looked up)
chain: B1 chain with A393C, C397P
notes: as for B1
B10: DDR1 G421C (in the C287S background) (receptor, human, UniProt Q08345 19-913, looked up)
chain: B1 chain with C397P, G403C
notes: as for B3
B11: DDR1 residue 420 to cysteine (in the C287S background) (receptor, human, UniProt Q08345 19-913, looked up)
chain: B1 chain with C397P, I402C
notes: discoidin domain receptor 1, isoform DDR1b, human; full-length cDNA in pRK5; also called TM cysteine mutant, residue 420; source: HEK293, transiently transfected, in lysate
B12: DDR1 residue 413 to cysteine (in the C287S background) (receptor, human, UniProt Q08345 19-913, looked up)
chain: B1 chain with G395C, C397P
notes: as for B1
B13: DDR1 residue 409 to cysteine (in the C287S background) (receptor, human, UniProt Q08345 19-913, looked up)
chain: B1 chain with A391C, C397P
notes: as for B1

Target: the molecule itself
Test: cross-linking; disulfide cross-linking of introduced cysteines in transiently transfected HEK293 cells, untreated or with 10 ug/ml collagen I for 90 min at 37 °C; lysis in 1% Nonidet P-40 buffer with NEM; nonreducing SDS-PAGE on 5% gels, Western blot with anti-DDR1; efficiency as percent dimeric of total DDR1

Dimerization efficiency (percent dimeric of total DDR1), > 70%:
B1
B2
B4
B5
B7
B9
B12
B13

Stoichiometry N, ~4:
B3
B6
B8
B10
B11
